Bridges are numbered along the chain shown (N, C = ends). Where no end group is shown, it is not given here.
What follows are binders tested against T1, alpha subunit of the human FcεRI receptor (IgE high affinity receptor), expressed on Chinese hamster ovary … (human, UniProt P12319 26-257) (assay: inhibition of 125I-IgE binding to CHO cells expressing human FcεRI alpha; competitor IgE).
T1 construct: whole, on cells; also called CHO FcεRI+ cells; FcεRIα
T1 sequence (looked up): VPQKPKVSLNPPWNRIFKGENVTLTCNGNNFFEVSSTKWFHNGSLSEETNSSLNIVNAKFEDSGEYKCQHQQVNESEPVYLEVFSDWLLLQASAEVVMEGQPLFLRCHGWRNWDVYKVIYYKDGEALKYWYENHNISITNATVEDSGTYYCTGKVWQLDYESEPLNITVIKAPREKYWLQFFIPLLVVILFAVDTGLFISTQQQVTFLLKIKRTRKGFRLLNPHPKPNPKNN
Procedure: To determine the ability of peptides to inhibit IgE binding to FcεRI, a cell-based binding assay was used with radiolabeled IgE. Chinese hamster ovary cells expressing the alpha subunit of the human FcεRI receptor were cultured overnight in Falcon 96 well microtiter plates at a concentration of 5 ×10^4 cells per well. The following day the cells were rinsed three times with PBS and then once with F12/DMEM. Peptide stocks were reconstituted in 100 mM Hepes buffered water, pH 7.2, at a concentration of 5 mg/mL. Working concentrations of the peptide were diluted in assay buffer (see below). 75 uL of a desired concentration of peptide was added to the top row of a separate 96 well microtiter plate and serially diluted 1:3 in 50 uL of the assay buffer (F12/DMEM, 1% BSA, 0.05% NaN_3 and 0.025 mM Hepes pH 7.2). Starting concentrations ranged from 50–500 uM. Next, 50 uL of the diluted peptide was transferred to the 96 microtiter well plate containing a monolayer of CHO FcεRI+ cells. […] Cells were […]

Binder	IC50
KSCPLWCYVGGKALCPDVCYV-NH2 (not fully specified (bridges); cysteine pairing not given here) [IGE128]	240 nM
VQCPHFCYELDYELCPDVCYV-NH2 (not fully specified (bridges); cysteine pairing not given here) [IGE134]	32 nM
VQCPHFCYELDYELCPWVCYV-NH2 (not fully specified (bridges); cysteine pairing not given here) [IGE175]	57 nM
VQCPDFCYELDYELCPDVCYV-NH2 (not fully specified (bridges); cysteine pairing not given here) [IGE190]	58 nM
VQCPHFCYELDYELCPDKCYT-NH2 (not fully specified (bridges); cysteine pairing not given here) [IGE173]	61 nM
VQCPHFCYELDYELCPWKCYT-NH2 (not fully specified (bridges); cysteine pairing not given here) [IGE174]	172 nM
ALCPAVCYV-NH2 (disulfide 3-7 (inferred); also: synthesized as monomer, spontaneously formed a dimer) [IGE037]	251000 nM
ALCPAVCYV-NH2 (also: antiparallel disulfide-linked homodimer, interchain C3-C7' and C7-C3', also called antiparallel covalent dimer of IGE037) [IGE089]	64000 nM
NGCPGWCYVGGKALCPDVCYV-NH2 (disulfide 7-15, 3-19; N-terminus assumed; SMILES CC(C)C[C@@H]1NC(=O)[C@H](C)NC(=O)[C@H](CCCCN)NC(=O)CNC(=O)CNC(=O)[C@H](C(C)C)NC(=O)[C@H](Cc2ccc(O)cc2)NC(=O)[C@@H]2CSSC[C@H](NC1=O)C(=O)N1CCC[C@H]1C(=O)N[C@@H](CC(=O)O)C(=O)N[C@@H](C(C)C)C(=O)N[C@H](C(=O)N[C@@H](Cc1ccc(O)cc1)C(=O)N[C@H](C(N)=O)C(C)C)CSSC[C@H](NC(=O)CNC(=O)[C@@H](N)CC(N)=O)C(=O)N1CCC[C@H]1C(=O)NCC(=O)N[C@@H](Cc1c[nH]c3ccccc13)C(=O)N2) [IGE119]	1400 nM
VKCPSLCYVGGKALCPDVCYV-NH2 (not fully specified (bridges); cysteine pairing not given here) [IGE123]	180 nM
VPCPELCYVGGKALCPDVCYV-NH2 (not fully specified (bridges); cysteine pairing not given here) [IGE124]	890 nM
IVCPRLCYELDYELCPDVCYV-NH2 (cysteine pairing not given here) [IGE141]	131 nM
VVCPNMCYVGGKALCPDVCYV-NH2 (not fully specified (bridges); cysteine pairing not given here) [IGE121]	340 nM
VTCPRWCYVGGKALCPDVCYV-NH2 (cysteine pairing not given here) [IGE126]	380 nM
VQCPHFCYVGGKVQCPHFCYV-NH2 (not fully specified (bridges); cysteine pairing not given here) [IGE131]	2300 nM
ALCPDVCYVGGKVQCPHFCYV-NH2 (disulfide 7-15, 3-19; N-terminus assumed; SMILES CC(C)C[C@H](NC(=O)[C@H](C)N)C(=O)N[C@H]1CSSC[C@@H](C(=O)N[C@@H](Cc2ccc(O)cc2)C(=O)N[C@H](C(N)=O)C(C)C)NC(=O)[C@H](Cc2ccccc2)NC(=O)[C@H](Cc2c[nH]cn2)NC(=O)[C@@H]2CCCN2C(=O)[C@@H]2CSSC[C@H](NC(=O)[C@H](C(C)C)NC(=O)[C@H](CC(=O)O)NC(=O)[C@@H]3CCCN3C1=O)C(=O)N[C@@H](Cc1ccc(O)cc1)C(=O)N[C@@H](C(C)C)C(=O)NCC(=O)NCC(=O)N[C@@H](CCCCN)C(=O)N[C@@H](C(C)C)C(=O)N[C@@H](CCC(N)=O)C(=O)N2) [IGE130]	250 nM
VQCPHFCYVGGHALCPDVCYVGR (not fully specified (bridges); cysteine pairing not given here, produced as Z-domain fusion in E. coli and released with trypsin) [IGE132]	80 nM
VQCPDFCYVGGHALCPDVCYVGR (not fully specified; cysteine pairing not given here, produced as Z-domain fusion in E. coli and released with trypsin) [IGE145]	117 nM
VQCAHFCYVGGHALCPDVCYVGR (disulfide (positions not given here), produced as Z-domain fusion in E. coli and released with trypsin) [IGE142]	1000 nM
ALCPAVCYVGGKALCPDVCYV-NH2 (disulfide 7-15, 3-19; N-terminus assumed; SMILES CC(C)C[C@H](NC(=O)[C@H](C)N)C(=O)N[C@H]1CSSC[C@@H](C(=O)N[C@@H](Cc2ccc(O)cc2)C(=O)N[C@H](C(N)=O)C(C)C)NC(=O)[C@H](C(C)C)NC(=O)[C@H](CC(=O)O)NC(=O)[C@@H]2CCCN2C(=O)[C@@H]2CSSC[C@H](NC(=O)[C@H](C(C)C)NC(=O)[C@H](C)NC(=O)[C@@H]3CCCN3C1=O)C(=O)N[C@@H](Cc1ccc(O)cc1)C(=O)N[C@@H](C(C)C)C(=O)NCC(=O)NCC(=O)N[C@@H](CCCCN)C(=O)N[C@@H](C)C(=O)N[C@@H](CC(C)C)C(=O)N2) [IGE083]	1100 nM
VQCPHFCYFGGAELCPDVCYV-NH2 (cysteine pairing not given here) [IGE135]	47 nM
VQCPHFCYFGGAELCPGVCYV-NH2 (cysteine pairing not given here) [IGE136]	119 nM
VQCPDFCYFGGAELCPDVCYV-NH2 (not fully specified (bridges); cysteine pairing not given here) [IGE191]	210 nM
IVCPRLCYVGGKALCPDVCYV-NH2 (not fully specified (bridges); cysteine pairing not given here) [IGE120]	290 nM
IVCARLCYVGGKALCPDVCYV-NH2 (not fully specified (bridges); cysteine pairing not given here) [IGE127]	13000 nM
VQCPHFCYVGGKALCPDVCYV-NH2 (not fully specified (bridges); cysteine pairing not given here) [IGE122]	170 nM
VQCPHFCYVGGKALCPDVCDV-NH2 (not fully specified (bridges); cysteine pairing not given here) [IGE150]	1230 nM
VQCPHFCYVGGKALCPDKCYT-NH2 (cysteine pairing not given here) [IGE148]	94 nM
VQCPHFCYVGGKALCPDKCYV-NH2 (cysteine pairing not given here) [IGE147]	158 nM
VQCPHFCYVGGKALCPDPCYV-NH2 (cysteine pairing not given here) [IGE149]	166 nM

Reference: US7101851 (dated 2006)
